Four sequences from the DeepSol protein solubility set can be followed below.

The data set is described as follows: soluble on expression in E. coli; label from the status in PepcDB or PDB records.
Turning to “MDLLVVVPHPDDESFGAGGALLLAKEAGLKTGVLTLTRGEAGRTLGLCPPKELPQVRVEELKRAAAVLQVDYLEVLDYPNALPEGAQGERGPATGRGLADHPEAVEAIRTRLLRLRPRFVLTFPPDGINGHPDHVAASRYAREAAQGLAQVVYLVRPDGPWPVTHRLRLPERVLARKLQAIAQHKTQALSVLKFLEMFPERLWTETFHLPGASGLREGPWW”, the “soluble on expression in E. coli” value is “soluble”.

Regarding “MSLIDRFGRPLEDLRITLTHACNFECFFCHMEGEEGDNYLLSKEDILLVAKVARKFGINSVKLTGGEPTLRRDLVEIVRGLKQLGYEDVSMTTNGFLLKDLAHKLKLAGLDRINISLHAVSRDTFKKITGVDAFDRVIEGIKSAIDVGLVPVKLNFVVNRRNREEAFKFIELSQNLGVNEIHLIELHPVGLGKLAFKEHDDLREIEEYIEKISIKKLIRKKHFRPRYVLPSGLIVEVVKPYANPIFCAGCNRIRLSVDGKLKTCLYREDNVIDVLDILKGEYSEDVKEELLGRAFMIAIAIREPNFKYKIEGHHHHHH”, the “soluble on expression in E. coli” value is reported as “soluble”.

Take “MAELYDGPIVDAHHHFWDPQANYHPWLAEDAKIPFRYGDYSAIKRRYLPADYFGDVGAHRVVETVYVETEWDPRDPLGETRFVHHLAERHGAPHAVVAQAWLDAPDAAEVLAAQAGFARVRSVRHKPGGPQRPQQVGELRSLMSDERWRRGYAELARHGLHFDLQTPWWNLAEAACLARDFPDTLIVLNHAGLPSDRSEEGLAAWQRAMARFAECPNVALKISGIGQAGRRWSVEDNAWIVRESIALFGVERAMFASNFPVDSLCGSFDDIYGGFKRIVADLPYADQERLFHSNARRIYRTVPDTVRLQQASPDPRTSP”: the “soluble on expression in E. coli” value is “not soluble”.

With “MPNPRRIVFGDVHGHFDALTALFEAIAPNERDGVYFVGDLIDRGPESAKVVDFVMENKYHCLLGNHEQMMLDAVGGFNFSPQLLHAWIYSGGKSTLESYEHQIPQSHVDWMRNLPLYLDLGDVWLVHAGVDPRLPIEEQGEAQFCWIRDEFHRYPYPYFANKLIITGHTITFTFANVEPGKLVSGPGWLDIDTGAYHPKSGWLTALELNNQEVYQAHIFTNEVRRLPLEDAVVPLEHHHHHH”, the “soluble on expression in E. coli” value is on record as “soluble”.
